Data taken from article PMC10996005 (2024).
*1 amine or outer side, *2 acyl side, *3 side chain or, on linkers, in order; H or OH if unused. [ ]: non-standard residue; d: D form. Phe(4-OMe) = COc1ccc(C[C@H](N[*:1])C(=O)[*:2])cc1; Phe(4-I) = N[C@@H](Cc1ccc(I)cc1)C(=O)O; 1Nal = N[C@@H](Cc1cccc2ccccc12)C(=O)O; hPhe = N[C@@H](CCc1ccccc1)C(=O)O; 4Pal = N[C@@H](Cc1ccncc1)C(=O)O; Phg = N[C@H](C(=O)O)c1ccccc1

B1: cyclo-CRLII(1-Nal) (peptide)
chain: cyclo(CRLII[1Nal])
SMILES: CC[C@H](C)[C@@H]1NC(=O)[C@H](CC(C)C)NC(=O)[C@H](CCCNC(=N)N)NC(=O)[C@H](CS)NC(=O)[C@H](Cc2cccc3ccccc23)NC(=O)[C@H]([C@@H](C)CC)NC1=O
B2: cyclo-CRLII(D-F) (peptide)
chain: cyclo(CRLII[dF])
SMILES: CC[C@H](C)[C@@H]1NC(=O)[C@H](CC(C)C)NC(=O)[C@H](CCCNC(=N)N)NC(=O)[C@H](CS)NC(=O)[C@@H](Cc2ccccc2)NC(=O)[C@H]([C@@H](C)CC)NC1=O
B3: cyclo-CRLII(hF) (peptide)
chain: cyclo(CRLII[hPhe])
SMILES: CC[C@H](C)[C@@H]1NC(=O)[C@H](CC(C)C)NC(=O)[C@H](CCCNC(=N)N)NC(=O)[C@H](CS)NC(=O)[C@H](CCc2ccccc2)NC(=O)[C@H]([C@@H](C)CC)NC1=O
B4: cyclo-CRLII(Phg) (peptide)
chain: cyclo(CRLII[Phg])
SMILES: CC[C@H](C)[C@@H]1NC(=O)[C@H](CC(C)C)NC(=O)[C@H](CCCNC(=N)N)NC(=O)[C@H](CS)NC(=O)[C@H](c2ccccc2)NC(=O)[C@H]([C@@H](C)CC)NC1=O
B5: cyclo-CRLII(4-iodo)F (peptide)
chain: cyclo(CRLII[Phe(4-I)])
SMILES: CC[C@H](C)[C@@H]1NC(=O)[C@H](CC(C)C)NC(=O)[C@H](CCCNC(=N)N)NC(=O)[C@H](CS)NC(=O)[C@H](Cc2ccc(I)cc2)NC(=O)[C@H]([C@@H](C)CC)NC1=O
B6: cyclo-CRLII(4-iodo)F (peptide)
chain: cyclo(CRLII[Phe(4-I)])
SMILES: CC[C@H](C)[C@@H]1NC(=O)[C@H](CC(C)C)NC(=O)[C@H](CCCNC(=N)N)NC(=O)[C@H](CS)NC(=O)[C@H](Cc2ccc(I)cc2)NC(=O)[C@H]([C@@H](C)CC)NC1=O
B7: cyclo-CRLII(4-Pal) (peptide)
chain: cyclo(CRLII[4Pal])
SMILES: CC[C@H](C)[C@@H]1NC(=O)[C@H](CC(C)C)NC(=O)[C@H](CCCNC(=N)N)NC(=O)[C@H](CS)NC(=O)[C@H](Cc2ccncc2)NC(=O)[C@H]([C@@H](C)CC)NC1=O

How the values were obtained:
HIF-1α PAS-B [1] = biological target: T1, HIF-1α PAS-B (Homo sapiens, UniProt Q16665); experiment: MST
HIF-2α PAS-B [2] = biological target: HIF-2α PAS-B (Homo sapiens, UniProt Q99814); experiment: MST
Target sequence in this assay (Q99814 240-350): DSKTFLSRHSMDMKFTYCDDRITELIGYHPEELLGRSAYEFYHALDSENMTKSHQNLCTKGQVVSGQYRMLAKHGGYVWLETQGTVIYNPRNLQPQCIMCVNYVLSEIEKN

HIF-1α PAS-B [3] = biological target: T1, HIF-1α PAS-B; experiment: FP
HIF-2α PAS-B [4] = biological target: HIF-2α PAS-B (Homo sapiens, UniProt Q99814); experiment: MST; remark: listed apart in the source
Target sequence in this assay (Q99814 240-350 G323E): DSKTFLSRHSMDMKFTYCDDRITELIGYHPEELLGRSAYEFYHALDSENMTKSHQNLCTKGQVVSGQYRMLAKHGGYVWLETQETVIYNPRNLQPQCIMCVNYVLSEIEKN

T1 sequence (Q16665 238-349): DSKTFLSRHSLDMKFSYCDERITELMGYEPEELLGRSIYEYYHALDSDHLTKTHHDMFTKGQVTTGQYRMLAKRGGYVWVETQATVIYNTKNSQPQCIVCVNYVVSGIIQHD

Row | Binder | Kd (HIF-1α PAS-B [1]) | further results
1 | cyclo(CRLII[Phe(4-Bz)]) [cyclo-CRLII(4-Bz)F] | 1.6 µM | –
2 | B1 | 1.7 µM | –
3 | CKLIIF (head-to-tail cyclic peptide) [cyclo-CKLIIF] | 2.6 µM | Kd (HIF-2α PAS-B [2]): 2.2 µM
4 | CRLLIF (head-to-tail cyclic peptide) [cyclo-CRLLIF] | 14.5 µM | Kd (HIF-2α PAS-B [2]): 10.2 µM
5 | B2 | 6.2 µM | –
6 | B3 | 1.2 µM | –
7 | B4 | 5.8 µM | –
8 | cyclo(CRLIIF) (also: Cy5-labeled HIF-1α) | – | Kd (HIF-1α PAS-B [3]): 4.6 µM
9 | B5 | 0.821 µM | Kd (HIF-2α PAS-B [2]): 1.7 µM
10 | B6 | – | Kd (HIF-2α PAS-B [4]): 7.2 µM
11 | CRVIIF (head-to-tail cyclic peptide) [cyclo-CRVIIF] | 65 µM | Kd (HIF-2α PAS-B [2]): 123 µM
12 | B7 | 39.6 µM | –
13 | CRLIIF (head-to-tail cyclic peptide) | 3.8 µM | –
14 | cyclo(CRLII[Phe(4-OMe)]) [cyclo-CRLII(4-OMe)F] | 11.2 µM | –
15 | CKLLIF (head-to-tail cyclic peptide) [cyclo-CKLLIF] | 12 µM | –
